Data as given in article PMC3530167.

Target: HLA-DM wild type, biotinylated at a BirA site on the C-terminus of DMα (human) (UniProt P28067)
Experiment: SPR

Sequence of UniProt P28067 (P28067 27-261, chain 1 of 2): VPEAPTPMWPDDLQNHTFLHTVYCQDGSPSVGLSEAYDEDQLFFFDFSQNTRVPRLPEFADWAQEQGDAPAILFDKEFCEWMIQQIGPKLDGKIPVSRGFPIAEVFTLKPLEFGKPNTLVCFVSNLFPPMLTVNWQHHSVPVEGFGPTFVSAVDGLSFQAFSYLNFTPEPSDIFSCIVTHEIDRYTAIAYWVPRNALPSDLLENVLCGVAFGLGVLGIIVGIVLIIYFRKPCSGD
Sequence of UniProt P28067 (P28068 19-263, chain 2 of 2, further chain): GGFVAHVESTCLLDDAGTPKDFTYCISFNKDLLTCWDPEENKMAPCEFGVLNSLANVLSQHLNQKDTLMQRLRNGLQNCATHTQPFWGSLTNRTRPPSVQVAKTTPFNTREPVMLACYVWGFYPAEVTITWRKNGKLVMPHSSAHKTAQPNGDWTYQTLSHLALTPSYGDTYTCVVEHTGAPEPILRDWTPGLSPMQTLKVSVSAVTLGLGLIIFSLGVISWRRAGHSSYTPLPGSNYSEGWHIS

For “HLA-DR1 with a covalently linked, N-terminally truncated HA-like peptide (P2 to P11) (peptide-MHC)”, the fold lower affinity at pH 6.5 than at pH 5.5 was 3 fold.
